Measurements from patent US20230235012A1 (ALPINE IMMUNE SCIENCES, published 2023).
Residue numbers refer to the chain shown, from its start. Names and notes keep the numbering of the source.

T1: human ICOS, full-length, expressed on transfected Expi293 cells (human, UniProt Q9Y6W8 21-199)
T1 construct: whole, on cells
T1 sequence (looked up): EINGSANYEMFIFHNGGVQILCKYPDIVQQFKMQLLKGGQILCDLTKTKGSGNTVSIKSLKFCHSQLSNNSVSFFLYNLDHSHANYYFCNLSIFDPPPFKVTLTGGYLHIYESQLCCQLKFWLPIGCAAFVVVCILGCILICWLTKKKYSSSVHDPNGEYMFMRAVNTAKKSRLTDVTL

T2: human ICOS (human, UniProt Q9Y6W8 21-199)
T2 construct: whole, on cells
T2 sequence (looked up): T1 sequence (looked up)

B1: variant ICOSL ECD-Fc fusion, full length N52H/N57Y/Q100R/F172S (Fc fusion, not shown: a dimerising Fc or GST)
chain: DTQEKEVRAMVGSDVELSCACPEGSRFDLNDVYVYWQTSESKTVVTYHIPQHSSLEYVDSRYRNRALMSPAGMLRGDFSLRLFNVTPQDEQKFHCLVLSRSLGFQEVLSVEVTLHVAANFSVPVVSAPHSPSQDELTFTCTSINGYPRPNVYWINKTDNSLLDQALQNDTVSLNMRGLYDVVSVLRIARTPSVNIGCCIENVLLQQNLTVGSQTGNDIGERDKITENPVSTGEKNAAT
B2: variant ICOSL IgV-Fc fusion N52R/N57L/Q100A (Fc fusion)
chain: DTQEKEVRAMVGSDVELSCACPEGSRFDLNDVYVYWQTSESKTVVTYHIPQRSSLELVDSRYRNRALMSPAGMLRGDFSLRLFNVTPQDEQKFHCLVLSASLGFQEVLSVEVTLHVAANFSVGSGGGGSEPKSSDKTHTCPPCPAPEAEGAPSVFLFPPKPKDTLMISRTPEVTCVVVDVSHEDPEVKFNWYVDGVEVHNAKTKPREEQYNSTYRVVSVLTVLHQDWLNGKEYKCKVSNKALPAPIEKTISKAKGQPREPQVYTLPPSREEMTKNQVSLTCLVKGFYPSDIAVEWESNGQPENNYKTTPPVLDSDGSFFLYSKLTVDKSRWQQGNVFSCSVMHEALHNHYTQKSLSLSPG
B3: variant ICOSL IgV-Fc fusion N52S/N57L/Q100S (Fc fusion)
chain: B2 chain with R52S, A100S
B4: variant ICOSL IgV-Fc fusion N52S/N57M/Q100S (Fc fusion)
chain: B2 chain with R52S, L57M, A100S
B5: variant ICOSL IgV-Fc fusion N52S/N57Y/Q100V (Fc fusion)
chain: B2 chain with R52S, L57Y, A100V
B6: variant ICOSL IgV-Fc fusion N52R/N57L/Q100S (Fc fusion)
chain: B2 chain with A100S
B7: variant ICOSL IgV-Fc fusion N52S/N57Y/Q100S (Fc fusion)
chain: B2 chain with R52S, L57Y, A100S
B8: variant ICOSL IgV-Fc fusion N52R/N57Y/Q100S (Fc fusion)
chain: B2 chain with L57Y, A100S
B9: variant ICOSL IgV-Fc fusion N52T/N57H/Q100S (Fc fusion)
chain: B2 chain with R52T, L57H, A100S
B10: variant ICOSL IgV-Fc fusion N52R/N57W/Q100K (Fc fusion)
chain: B2 chain with L57W, A100K
B11: variant ICOSL IgV-Fc fusion N52T/N57H/Q100A (Fc fusion)
chain: B2 chain with R52T, L57H
B12: variant ICOSL IgV-Fc fusion N57Q/Q100P (Fc fusion)
chain: B2 chain with R52N, L57Q, A100P
B13: variant ICOSL IgV-Fc fusion N52V/N57T/Q100L (Fc fusion)
chain: B2 chain with R52V, L57T, A100L
B14: variant ICOSL IgV-Fc fusion N52S/N57Y/Q100M (Fc fusion)
chain: B2 chain with R52S, L57Y, A100M
B15: variant ICOSL IgV-Fc fusion N52S/N57H/Q100E (Fc fusion)
chain: B2 chain with R52S, L57H, A100E
B16: variant ICOSL IgV-Fc fusion N52R/N57Y/Q100R (Fc fusion)
chain: B2 chain with L57Y, A100R
B17: variant ICOSL IgV-Fc fusion N52H/N57Y/Q100R (Fc fusion, not shown: a dimerising Fc or GST)
chain: DTQEKEVRAMVGSDVELSCACPEGSRFDLNDVYVYWQTSESKTVVTYHIPQHSSLEYVDSRYRNRALMSPAGMLRGDFSLRLFNVTPQDEQKFHCLVLSRSLGFQEVLSVEVTLHVAANFSV
B18: ICOSL ECD Truncation #6 with N52H/N57Y/Q100R/F172S, Fc fusion (Fc fusion)
chain: DTQEKEVRAMVGSDVELSCACPEGSRFDLNDVYVYWQTSESKTVVTYHIPQHSSLEYVDSRYRNRALMSPAGMLRGDFSLRLFNVTPQDEQKFHCLVLSRSLGFQEVLSVEVTLHVAANFSVPVVSAPHSPSQDELTFTCTSINGYPRPNVYWINKTDNSLLDQALQNDTVSLNMRGLYDVVSVLRIARTPSVNIGCCIENVLLGGGGSGGGGSEPKSSDKTHTCPPCPAPEAEGAPSVFLFPPKPKDTLMISRTPEVTCVVVDVSHEDPEVKFNWYVDGVEVHNAKTKPREEQYNSTYRVVSVLTVLHQDWLNGKEYKCKVSNKALPAPIEKTISKAKGQPREPQVYTLPPSREEMTKNQVSLTCLVKGFYPSDIAVEWESNGQPENNYKTTPPVLDSDGSFFLYSKLTVDKSRWQQGNVFSCSVMHEALHNHYTQKSLSLSPG
B19: ICOSL ECD Truncation #6 with N52H/N57Y/Q100R/C198R, Fc fusion (Fc fusion)
chain: B18 chain with S172F, C198R
notes: not restated for the C198R set
B20: ICOSL ECD Truncation #7 with N52H/N57Y/Q100R/C198R and E90K/E111G, Fc fusion (Fc fusion)
chain: DTQEKEVRAMVGSDVELSCACPEGSRFDLNDVYVYWQTSESKTVVTYHIPQHSSLEYVDSRYRNRALMSPAGMLRGDFSLRLFNVTPQDKQKFHCLVLSRSLGFQEVLSVGVTLHVAANFSVPVVSAPHSPSQDELTFTCTSINGYPRPNVYWINKTDNSLLDQALQNDTVFLNMRGLYDVVSVLRIARTPSVNIGCRIENGGGGSGGGGSEPKSSDKTHTCPPCPAPEAEGAPSVFLFPPKPKDTLMISRTPEVTCVVVDVSHEDPEVKFNWYVDGVEVHNAKTKPREEQYNSTYRVVSVLTVLHQDWLNGKEYKCKVSNKALPAPIEKTISKAKGQPREPQVYTLPPSREEMTKNQVSLTCLVKGFYPSDIAVEWESNGQPENNYKTTPPVLDSDGSFFLYSKLTVDKSRWQQGNVFSCSVMHEALHNHYTQKSLSLSPG
notes: as for B19
B21: ICOSL ECD Truncation #7 with N52H/N57Y/Q100R/F172S and F83S, Fc fusion (Fc fusion)
chain: B20 chain with F83S, K90E, G111E, F172S, R198C

target: T1, human ICOS, full-length, expressed on …; assay: flow cytometry, 100 nM, Expi293 cells with human ICOS

MFI [MFI]	MFI ratio to WT (ΔWT) [fold]	Binder
238000	1.12	B1
308000	1.45	B2
269000	1.27	B3
312000	1.47	B4
219000	1.03	B5
231000	1.09	B6
224000	1.06	B7
229000	1.08	B8
259000	1.22	B9
349000	1.65	B10
220000	1.04	B11
205000	0.97	B12
29200	0.14	B13
303000	1.43	B14
258000	1.22	B15
6100	0.03	B16
200000	0.94	B17

target: T2, human ICOS; assay: flow cytometry, transfected cells; protein from CHO

MFI [MFI]	MFI ratio to WT [fold]	Binder
90100	0.9	B18
91400	0.9	B19
54600	0.5	B20
106000	1.1	B21

target: T3, human CD28 (human, UniProt P10747 19-220); assay: as above
T3 construct: whole, on cells

MFI [MFI]	MFI ratio to WT [fold]	Binder
91300	52.8	B18
84600	49	B19
38900	22.5	B20
88300	51.1	B21

target: T4, human CTLA-4 (human, UniProt P16410 36-223); assay: as above
T4 construct: whole, on cells
T4 sequence (P16410 36-223): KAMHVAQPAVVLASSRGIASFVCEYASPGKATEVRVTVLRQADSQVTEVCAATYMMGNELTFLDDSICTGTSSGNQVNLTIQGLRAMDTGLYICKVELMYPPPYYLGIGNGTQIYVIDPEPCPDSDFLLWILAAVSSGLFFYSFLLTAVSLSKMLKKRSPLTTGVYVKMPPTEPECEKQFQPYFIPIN

MFI [MFI]	MFI ratio to WT [fold]	Binder
240000	31.6	B18
236000	31.1	B19
83700	11	B20
207000	27.3	B21

target: T5, human CTLA-4, full-length, expressed on transfected Expi293 cells (human, UniProt P16410 36-223); assay: flow cytometry, 100 nM, Expi293 cells with human CTLA-4
T5 construct: whole, on cells
T5 sequence (P16410 36-223): as above

MFI [MFI]	MFI ratio to WT (ΔWT) [fold]	Binder
606000	1.83	B1
403000	1.22	B2
197000	0.6	B3
228000	0.69	B4
305000	0.92	B5
289000	0.88	B6
205000	0.62	B7
504000	1.53	B8
378000	1.14	B9
477000	1.44	B10
350000	1.06	B11
69100	0.21	B12
11500	0.03	B13
395000	1.2	B14
302000	0.92	B15
4270	0.01	B16
817000	2.47	B17

target: T6, human CD28, full-length, expressed on transfected Expi293 cells (human, UniProt P10747 19-220); assay: flow cytometry, 100 nM, Expi293 cells with human CD28
T6 construct: whole, on cells

MFI [MFI]	MFI ratio to WT (ΔWT) [fold]	Binder
138000	6.2	B1
119000	5.3	B2
108000	4.8	B3
134000	6	B4
126000	5.7	B5
112000	5	B6
161000	7.2	B7
133000	6	B8
143000	6.4	B9
131000	5.9	B10
113000	5	B11
15200	0.7	B12
6200	0.3	B13
157000	7	B14
117000	5.2	B15
3280	0.1	B16
142000	6.4	B17
